Data from the nanobody polyreactivity screen of Harvey et al. (2022).

Test: yeast display, Sf9 membrane polyspecificity reagent, FACS + sequencing; frameworks hold sequencing errors
Outline: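 Nanobodies came from a synthetic yeast display library in Saccharomyces cerevisiae BJ5465, induced with galactose for 36–48 hours and stained for 1 hour at 4 °C with 10% biotinylated, detergent-solubilized Sf9 membrane reagent. Cells were enriched on streptavidin microbeads and then FACS-sorted, with low and high (top ~1%) gates set on anti-HA fluorescence for expression and streptavidin fluorescence for reagent binding. Each polyreactivity label reflects the gate a clone came from. Genes were amplified by colony PCR, sequenced by MiSeq 2 × 250 and filtered by CDR length.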

Row | Sequence | polyreactivity (PSR sort gate)
1 | QVQLVESGGGLVQAGGSIRLSCAASGSIFTINTMGWYRQAPGKERELVAAISKRGGSTYYADSVKGRFTISRDNAKNTVYLQKNSLKPEDTAVYYCAARQFYKYYYWGQGTQVTVSS | high polyreactivity
2 | QVQLVESCGGLVQAGGSLRLSCDASGSIFIKKTMGWYRQAPGKEREMVAAISWSGGSTYYADSVKGRFTISRDNAKNTVYLQMNSLKPEDTAVYYCNAYYFWRTWFDTYDYWGQGTQVTVSS | high polyreactivity
3 | QVQLVQSGGGLVQAGGSLSLSCAGSGSTFHNYAMGWYRQAPGQEREMVAGISVRGGGTYYAYSVKGRFTISRDNANNTVYVQMNSLKPEETAVYYCAASRSRYSVNWYNYWGQGTQVTVSS | high polyreactivity
4 | QVQLVESGGGLVQAGGSLRLSCAASGIIFRNYAMGWYRQAPGKERELVAAISSNGGSTYYADSVKGRFTISRDNAKNTVYLQMNSLKPEDTAVYYCAARHSLYGYWGQGTQVTVSS | high polyreactivity
5 | QVQVVESGGGLVQAGGSLRLTCAASGRTFINYAIGRYRQPAAKERELVAAITPGGRTNYADSVKGRFTNSRDNAKYTVYLQMNSVTPEDTAVYYCAADRYYWGRYTLNYWGQGTQVTVSS | low polyreactivity
6 | QVQLVESGGGLVQAGGSLRLSCAASGRTIGIYAMGLYRQAPGKERELVAAITWSGDSTYYADSVKGRFTISRDNAKNTVYLQMNSLKPEDTAVYYCAAYYLYRYQTMGYWGQGTLVTVSS | low polyreactivity
7 | QVQLVESGGGLVQAGGSLRLSCAASGRIFRYYAMGWYRQATGKERELVAAISRSGGSTYYADSVKGRFTISRDNAKNTVYLQMNSLKPEDTAVYYCNAQWRSTDPYPPGYDYWGQGTQVTVSS | high polyreactivity
8 | QVQLVESGGGLVQAGGSLRLSCAASGFTFTYYAMGWYRHAPGKERELVAAITNSGGTTYYADSVKGRFTISRDNAKNTVYLQMNSLKPEDTAVYYCAAVPYYVLARSFYRYGYWGQGTQVTVSS | low polyreactivity
9 | QVQLVESGGGLVQAGGSLRLSCAASVSIFATNAKGWYRQAPGKERELVASISSGGGSTYYADSVKGRFTISRDNEKNTVYLQMNSLKPEDTAVYYFARRIGHGSRPYWLETWRYPYDYWGQGTQLTVSS | low polyreactivity
10 | QVQLVESGGGLVQAGGSLRLSCAASGSTIFGNVMGWYRQAPGKERELVAAISKTGGNTYYADSVKGRFTISRDNAKNTVYLQMNSLKPEDTAVYYCNALRGDWRDMGYWGQGTQVTVSS | high polyreactivity
11 | QVQLVESGGGLVQAGGSLRLSCAASGSIFFPYAMGWYRQAPGKERELVAAISYSGTSTYYADSVKGRFTISRDNAKNTVYLQMNSLKPEDTAVYYCAAYSRYYASYDYWGQGTQVTVSS | high polyreactivity
12 | QVQLEESAGGLVQAGGSLRLICADSARILRQYARGWYRQAPGKERELVAAITSSGGSTYYADSVKGRFTISRDNEKNTVYLQMNSMKPEDTAVYYCNARLRGAKYDYWGQGTQVSVSS | high polyreactivity
13 | QDQLEESGGGLVQEGGSLRLSCAATGFTLAFNAMGWYRQAPGKERELVASITSSSGSTYYADSVKGRFTISRDNAKITVFLQMNSLKPEDTAVYYCARDLAIPQVLSQPIFGYWGQGTQVTVSS | low polyreactivity
14 | QVQLVESGGGLVQAGGSLRLSCAASGFIFSGYAMGWYRQAPGKEWELVAAISRRGGSTYYADSVKGRFTISRDNAKNTVYLQMNSLKPEDTAVYYCARTTRGSYGKFYYWGQGTQVTVSS | high polyreactivity
15 | QVQLVESGGGLVQAGGSLRLSCAASGITFEWYDMGWYRQAPGKEKDLVAAISQSGASTYYADSVKGRFTISRDNAKNTVYLQMNSLKPEETAVYYCATRARYVGGYKYNYWGQGTQVTVSS | high polyreactivity
16 | QVQIVESGGGLVQAGGSLRLSCAASGRIFQPYAMGWYRQATGKERELVAAITRRAGSTYYADSVKGRFTISRDNANNTVYVQMNSLKPEDTAVYYCAARGLYWAYEMEYWGQGTQVTVSS | low polyreactivity
17 | QVQLVESGGGLVQAGGSLRLSCAASGSIFPVYTMGWYRQAPGKEREFVATITISGAITYYADSVKGRFTISRDNAKNSVYLQMNSLKPEDTAVYYCNTGPISYPANDYWGQGTQVTVSS | low polyreactivity
18 | QVQLVESGGGLVQAGGSLRLSCAASGSTSSLYTMGWYKQAPGKERELVAAITVSGSRTYYADSVKGRFTISRDNAKNTVYLQMNSLKPEDTAVYYCNAYPYYLVRNMDSWGQGTQVTVSS | high polyreactivity
19 | QVQLVESGVGLVQAGGSLRLSCAASGSTFYPNAMGWYRQAPRKERELVAAISRGTRTKYADSVKGRFTISRDNAKNTVYLQMNSLKPEDTAVYYCAADTGTGLDWGQGTQVTVSS | high polyreactivity
20 | QVQLVESGGVLVQAGGSLRLSCAASGSTFGRYTMGWYRQAPGKERELVAVITKSGGSTYYADSVKGRFTISRDNAKNTVYLQMNSLKPEDTAVYYCAAGVAWRFYSWGQGTQVTVSS | high polyreactivity
21 | QVQLVESGGGLVQAGASLRLSCAASGSTFDYYAMGWSRQAPGKELELVDAISRGGSTNYADSVKGRFTISRDNAKNSVYLQMNILKPEDTAVYYCAAAPTYRWHDGYWGQGTQVTVSS | low polyreactivity
22 | QVQLVESGGGLVQAGGSLRLSCAASGRTFFGYAMGWYRQAPGKERELVAAITTSGGSTYYADSVKGRFTISRDNAKNTVYLQMNSLKPEDTAVYYCAADSTNYWLGFYYWGQGTQVTVSS | low polyreactivity

Row | Sequence | polyreactivity (PSR sort gate)
23 | QVQLVESGGGLVQAGGSLRLSCAASGSTFGSNAMGWYRQAPGKERELVAAITGGDVSTYYADSVKGRFTISRDNAKNTDYLQMNSLKPEDTAVYYCNAEYARPAMDYWGQGTQVTVSS | low polyreactivity
24 | QVQLVESGGVLVQAGGSLRLSCAASGSIFERYDMGWYRQAPGKERELVAAITSAGITYYADSVKGRFTISRDNAKNNVYLQMNSLKPEDTAVYYCAAQGRRGAPYRHVNEGDYWGQGTQVTVSS | low polyreactivity
25 | QVQLVESGGGLVQAGGSLRLSCAASGSIFTYYAMGWYRKAPGKERELVAAITKSGGRTYYAHSVMGRFTISRDNAKNTVYLQMNRLKPEDTAVYYCAALYGRYQTSYQFDYWGQGTQVTVSS | high polyreactivity
26 | QVQLVESGGGLVQAGGSLRLSCAASGRIFSRNALGWYRQAPGKERELVAAISWRGGRTYYAVSVKGRFAISRDNAKNTVYLQMNSLKPEDTAVYYCNAVSFGRARHGGPVYGYDYWGQGTQVTVSS | high polyreactivity
27 | QVQLVESGGGLVQAGGSLRLSCSASGLIFSTYAMGWYRQAPGKVRELVAAISGTGSTYYADSVKGRFTISRDNAKNTVYLQMNRLKPEDTSVYYCAAGATLWLLGLKMGYWGQGTQVTVSS | low polyreactivity
28 | QVQLVESGGGLVQARGSLRLSCEASGFTFGSNTMACYRQAPGKERELVAAITRRGGSTNYADSVKGRFTISRDNAKNTVYLQMNSLKPDDTAVYYCARDYRSYTVSYDTSYDYWGQGTQVTVSS | high polyreactivity
29 | QVQLVESGGGLVQAGGSLRLSCAASGRIFRTNAMGWYRQAPGKEREFVAAISKDGGRTYYADSVKGRFTISRDNAKNTVYLQMNSLKPEDTAVYYCNVLVKHSTTTYSTYDYWGQGTQVTVSS | high polyreactivity
30 | QVQLVESGGGLVQAGGSLRLSCAASGSILDYKVMGWYRQPPGKERELVAAIRGGGSTYYADSVKGRFTISRDNAKNTVYLQMNSLKPEVTAVYYCAKDSQTARDFDYWGQGTQVTVSS | low polyreactivity
31 | QVQLVESGGGLVQAGGSLRLSCAASGRTFEGYTMGWYRQAPGKERELVAAITWRGTSTYYADSVKGRFTISRDNAKNTVYLQMNSLKPEDTAVYYCNKVGWYHNYYYWGQGTQVTVSS | high polyreactivity
32 | QVQLVESGGGLVQAGGSLRLICAASGRILYTYAMGWYRQAPGKERELVAGISRGGRTYYADSVKGRFTISRDNAKNTVYLQMNSLKPEDTAVYYCAARLQYGIQYRYDYWGQGTLVTVSS | high polyreactivity
33 | QVQLVESGGGLVQAGGSLRLSCAASGRIFAYNAMGWYRQAPGKERELVAAIDSGGDTNYADSVKGRFTISRDNAKNTVYLQMNSLKPEDTAVYYCAARLYVLRWYPYDYWGHGTQVTVSS | low polyreactivity
34 | QVQLVESGGGLVQAGGSLRLSCAASGSIFFPNAMGWYRQAPGKERELVAAINWSGDSTYYADSVKGRFTISRDNAKNTVYLQMNSLKPEDTAVYYCNATYPWFDYDYWGQGTQVTVSS | low polyreactivity
35 | QVQLVESGGGLVQAGGSLRLSCAASGLIFSDYAMGWYRQEPGKERELVAAIRSGGRTYYADSVKGRFTISRDNAKNTVYLQMNSLKPEDTAVYYCNKLYRRYPVPREYDYWGQGTQVTVSS | high polyreactivity
36 | QVQLVESGGRLVQAGGSLRLSCAASGYTFQRYAMGWYRQAPGKERELVAAISSSGGSTYYADSVKGRFTISRDNAKNTVYLQMNSLKPEDTAVFYCAVRFVSAWSRYDYWGQGTQVTVSS | high polyreactivity
37 | QVQLVESGGGLVQAGGSLRLSSAASGRTFNIYAKGWYRHAPGKERELVAAITWRSGSTYDADSVKGRFTISRDNAKNTVYLQMNSLKPEDTAVYYCAAEQWSSVPEFDYWGQGTQVTVSS | high polyreactivity
38 | QVQLVETEVGLDQAGGSLPLSCAASGYTFWAYAMGWYRQSPGKERELVAGISSRGSRTYYADSVKGRFTISRDNAKNTVYLQMNSLKPEDTAVYYCNALRTPPGYYPPFDYWGQGTQVTVSS | high polyreactivity
39 | QVQLVESGGGLVQAGGSLRLSCAASGSIFVYNAMGWYRQAPGKEREFVAAISWSVGRTYYADSVKGRFTFSRDNEKNTVYLQMNSLKPEDNAVYYCNAEFVAWYYYEEHDGDYWGQGTQVTVSS | high polyreactivity
40 | QDQLVESGGGLVQAGGSLRLSCAASGSIFSFYAMGWYSQATGKERELVAGIRWRGGTSTFYADSVKGRFTISRDNEKNTVYLQMNSLNPEDTAVYYCADKRRTGGNGYWGQGTQVTVSS | high polyreactivity
41 | HVQLQESGGGLVQAGGSLRLSCAASGNISYSRNMGWYRQAPGKERELVAAIDRGAITYYADSVKGRFTISRDNATNTVYLQIYSLKPEDTAVYYCAAEYHDRWDHRYWGQGTQVTVSS | high polyreactivity
42 | QVQLVESGGGLVQAGGSLRLSCAASGIIFVEYAMGWYRQAPGKERELVARIRYSGGSTYYADSVKGRFTISRDNAKNTVYLQMNSLKPEDTAVYYCNALFPYIYDYWGQGTQVTVSS | low polyreactivity
43 | QVQLVESGGGLVQAGGSLRLSCAASGRIFGSYAMGWYRQAHGKERELVAAIRWSGGSTYYADSVKGRFTISRDNAKNTVYLQMNSLKPEDTAVYYCAKTRTGYCFSYGYWGQGTQVTVSS | high polyreactivity
